From patent publication US20250382602 come the findings set out here.

Common to all, as to details: nanopore translocation, FLO-MIN112; background mutations not given
Series [1] has as its target T1, Dda 1993 K358A K358A (Enterobacteria phage T4) (UniProt P32270).
T1 sequence: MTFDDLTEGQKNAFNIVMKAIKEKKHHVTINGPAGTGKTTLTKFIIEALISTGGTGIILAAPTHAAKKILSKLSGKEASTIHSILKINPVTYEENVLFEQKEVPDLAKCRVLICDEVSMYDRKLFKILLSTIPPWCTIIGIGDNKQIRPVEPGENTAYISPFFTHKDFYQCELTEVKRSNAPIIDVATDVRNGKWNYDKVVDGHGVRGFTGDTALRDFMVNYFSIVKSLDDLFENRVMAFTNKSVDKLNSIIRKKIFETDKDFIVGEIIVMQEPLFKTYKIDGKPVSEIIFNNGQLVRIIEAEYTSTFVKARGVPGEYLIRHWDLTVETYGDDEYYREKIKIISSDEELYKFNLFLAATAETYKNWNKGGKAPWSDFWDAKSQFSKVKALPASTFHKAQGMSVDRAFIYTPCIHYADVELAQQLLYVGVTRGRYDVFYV

Series [2] concerns the target T2, Dda 1993 K358M K358M (Enterobacteria phage T4) (UniProt P32270).
T2 sequence: T1 sequence with A358M

For series [3], the target named is T3, Dda 1993 K358E K358E (Enterobacteria phage T4) (UniProt P32270).
T3 sequence: T1 sequence with A358E

For series [4], the target named is T4, Dda 1993 Y350I Y350I (Enterobacteria phage T4) (UniProt P32270).
T4 sequence: T1 sequence with Y350I, A358K

Series [5] addresses T5, Dda 1993 354Q 354Q (Enterobacteria phage T4) (UniProt P32270).
T5 sequence: T1 sequence with L354Q, A358K

The target of series [6] is T6, Dda 1993 361Q 361Q (Enterobacteria phage T4) (UniProt P32270).
T6 sequence: T1 sequence with A358K, E361Q

Residue numbers refer to the chain shown, from its start.

“barcoded 3.6 kb DNA analyte ligated to sequencing Y adaptor”: the activity (bps speed delta vs control) in series [1] was -0.99; in series [2] it was -11.8; in series [3], -7.28; in series [4], 2.22; in series [5] it was 0.09; in series [6] it was 13.8.
